Reference: the supplement of paper PMC6757056
± gives the standard deviation of the averaged measurements.

B1: library; a variant is named by its letters at N, in order (parent)
chain: GCUGUCACCGGUGCUUGGUACGUUAUAUUCAGCCGGUCUGAUGAGUCUNNNNNNAGACGAAACAGC

Legend:
(6R,S)-folinic acid [1] = variants of: B1; experiment: FACS-Seq fitted mean relative fluorescence mCherry/BFP without ligand (log10 relative fluorescence); HEK293T overexpressing SLC46A1; higher = higher reporter protein expression; details: without (6R,S)-folinic acid; ligand present: no
Outline: (§1)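 Fluorescence figures are normalized fitted normal means of sequenced bin counts. Enriched, lentivirally transduced HEK293T libraries with a ribozyme-switch mCherry reporter and EF1α-BFP were held 48 h with or without ligand, then sorted into 6 mCherry/BFP bins. PCR-amplified, barcoded genomic DNA from each bin was sequenced on MiSeq. Means of log10(mCherry/BFP) were scaled to five spiked-in control ribozymes.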

(6R,S)-folinic acid [2] = variants of: B1; experiment: normalized RNA/DNA level without ligand (relative to sTRSVctl = 100) (log10 (% of sTRSVctl)); HEK293T overexpressing SLC46A1; higher = less ribozyme self-cleavage, higher mRNA level; details: without (6R,S)-folinic acid; ligand present: no
Outline: (§2)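 Ribozyme switch library plasmids with mCherry reporters (eGFP in certain ligand experiments) went into HEK293T cells at 4 µg per 6-well well. Where ligand was used, it was applied 1 h before transfection, and total RNA was extracted with EDTA 72 h later for reverse transcription, amplification, barcoding and sequencing. RNA level is the RNA-to-DNA read ratio normalized to a spiked-in non-cleaving sequence or to the leading sequences, then scaled and log-transformed. Scaling was ×100 with log10, the leading set comprised 25 sequences, and the cutoff was ≥100 DNA reads.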

(6R,S)-folinic acid [3] = variants of: B1; experiment: FACS-Seq fitted mean relative fluorescence mCherry/BFP with ligand (log10 relative fluorescence); HEK293T overexpressing SLC46A1; ligand concentration (+) FACS-Seq: 6 mM; higher = higher reporter protein expression; details: with (6R,S)-folinic acid; ligand present: yes
Outline: as §1

(6R,S)-folinic acid [4] = variants of: B1; experiment: normalized RNA/DNA level with ligand (relative to sTRSVctl = 100) (log10 (% of sTRSVctl)); HEK293T overexpressing SLC46A1; ligand concentration (+) RNA-Seq: 6 mM; higher = less ribozyme self-cleavage, higher mRNA level; details: with (6R,S)-folinic acid; ligand present: yes
Outline: as §2

Variant | FACS-Seq fitted mean (log10) ((6R,S)-folinic acid [1]) | normalized RNA/DNA level without ligand (log10) ((6R,S)-folinic acid [2]) | FACS-Seq fitted mean (log10) ((6R,S)-folinic acid [3]) | normalized RNA/DNA level with ligand (log10) ((6R,S)-folinic acid [4])
GUGGUU | 0.311 ± 0.089 | 2.014 ± 0.0041 | 0.443 ± 0.013 | 2.02 ± 0.037
UUUGGG | 0.388 ± 0.062 | 1.71 ± 0.022 | 0.73 ± 0.13 | 1.94 ± 0.048
UUUGGA | 0.333 ± 0.049 | 1.9 ± 0.015 | 0.499 ± 0.056 | 1.98 ± 0.029
AUGGGG | 0.139 ± 0.026 | 1.841 ± 0.0025 | 0.258 ± 0.36 | 2.03 ± 0.062
AUGGGA | 0.263 ± 0.012 | 1.925 ± 0.015 | 0.269 ± 0.049 | 2.01 ± 0.03
CAAACG |  | 2.02 ± 0.0085 |  | 2.03 ± 0.036
CAAACA |  | 1.979 ± 0.014 |  | 2 ± 0.044
AUUGCG | 0.231 ± 0.12 | 1.8333 ± 0.00083 | 0.245 ± 0.22 | 2 ± 0.04
GUUAGG | 0.206 ± 0.031 | 1.938 ± 0.0023 | 0.301 ± 0.51 | 2 ± 0.031
CAAAUG |  | 2.007 ± 0.0091 |  | 2.007 ± 0.017
CAAAUU |  | 2.011 ± 0.0089 |  | 2.03 ± 0.027
CAAAUA |  | 1.95 ± 0.01 |  | 1.99 ± 0.025
CAAAUC |  | 2.05 ± 0.026 |  | 2.02 ± 0.047
GUUCGC | 0.511 ± 0.017 | 2.07 ± 0.024 | 0.368 ± 0.16 | 2.05 ± 0.025
GUUCGG | 0.155 ± 0.11 | 2.003 ± 0.0021 | 0.178 ± 0.021 | 1.985 ± 0.0024
UAACUC |  | 2.046 ± 0.0055 |  | 2.03 ± 0.045
GAACCA |  | 2.0209 ± 0.0019 |  | 2.01 ± 0.037
GAACCC |  | 2.02 ± 0.018 |  | 2.017 ± 0.0044
GAACCG |  | 2.018 ± 0.017 |  | 2.03 ± 0.038
AAAACC |  | 2.0338 ± 0.0018 |  | 2.02 ± 0.048
AUUGGA | 0.168 ± 0.094 | 1.941 ± 0.0048 | 0.119 ± 0.29 | 2.01 ± 0.038
CAACAA |  | 1.966 ± 0.015 |  | 1.99 ± 0.032
CAACAU |  | 1.978 ± 0.0086 |  | 2.02 ± 0.057
CAACAG |  | 1.976 ± 0.00034 |  | 2.01 ± 0.062

Variant | FACS-Seq fitted mean (log10) ((6R,S)-folinic acid [1]) | normalized RNA/DNA level without ligand (log10) ((6R,S)-folinic acid [2]) | FACS-Seq fitted mean (log10) ((6R,S)-folinic acid [3]) | normalized RNA/DNA level with ligand (log10) ((6R,S)-folinic acid [4])
CAACAC |  | 2.0222 ± 0.00082 |  | 2.014 ± 0.019
AAAAUG |  | 1.935 ± 0.013 |  | 2.02 ± 0.024
AAAAUC |  | 2.051 ± 0.0098 |  | 2.01 ± 0.023
GUUACC | 0.497 ± 0.022 | 2.047 ± 0.013 | 0.281 ± 0.23 | 2.03 ± 0.026
UAAACC |  | 2.006 ± 0.0033 |  | 2.01 ± 0.043
UAAACA |  | 1.96 ± 0.02 |  | 1.994 ± 0.016
UAAACU |  | 2.008 ± 0.013 |  | 2.02 ± 0.058
GUUCCA | 0.262 ± 0.14 | 2.0222 ± 0.00044 | 0.191 ± 0.16 | 2.03 ± 0.054
GAAAAA |  | 1.986 ± 0.0038 |  | 2.01 ± 0.038
GAACUC |  | 2.044 ± 0.0052 |  | 2.028 ± 0.012
GAACUA |  | 1.9884 ± 0.0016 |  | 2 ± 0.055
GAACUG |  | 1.971 ± 0.0088 |  | 1.99 ± 0.028
GAACUU |  | 2.002 ± 0.013 |  | 1.98 ± 0.028
UAACAU |  | 1.956 ± 0.016 |  | 2 ± 0.023
GUUCUA | 0.333 ± 0.067 | 2.03 ± 0.0066 | 0.412 ± 0.031 | 2.035 ± 0.0031
GUUUUA | 0.327 ± 0.011 | 2 ± 0.0092 | 0.461 ± 0.024 | 2.02 ± 0.029
GUUUUC | 0.421 ± 0.019 | 2.03 ± 0.021 | 0.346 ± 0.14 | 2 ± 0.028
UUGUUA | 0.514 ± 0.052 | 2.03 ± 0.014 | 0.793 ± 0.16 | 2.07 ± 0.031
GUUGAA | 0.184 ± 0.013 | 1.95 ± 0.01 | 0.741 ± 0.0086 | 2.01 ± 0.035
GUUGAG | 0.527 ± 0.087 | 1.89 ± 0.02 | 0.542 ± 0.36 | 2.028 ± 0.013
GUUGAC | 0.276 ± 0.11 | 1.949 ± 0.018 | 0.451 ± 0.087 | 2.01 ± 0.028
AAAAGA |  | 1.957 ± 0.0042 |  | 2.02 ± 0.021
AAAAGU |  | 1.94 ± 0.013 |  | 2 ± 0.041
